The values below come from patent publication US20180155451A1 (published 2018).

The target in experiment [1] is T1, FcγRIIb (extracellular domain, C-terminal His tag) (human, UniProt P31994 43-217).
T1 construct: extracellular domain; also called FcgRIIb; 2b; not shown: His tag attached to the C terminus
T1 sequence (looked up): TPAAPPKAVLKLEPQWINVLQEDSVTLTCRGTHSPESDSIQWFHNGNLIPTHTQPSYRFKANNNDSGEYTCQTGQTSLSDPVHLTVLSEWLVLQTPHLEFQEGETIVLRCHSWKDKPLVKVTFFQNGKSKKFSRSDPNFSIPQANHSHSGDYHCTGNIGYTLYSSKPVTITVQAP
Description: SPR (Biacore), antibody captured on antigen-peptide chip, FcγR as analyte; relative binding amount. On the procedure:
(§1) The heterodimerized antibodies He Abs in which one of the H chains was introduced with an alteration were assayed for their binding activities to each activating FcγR and inhibitory FcγR according to the method described in Example 4. […] The activating FcγRs in FIGS. 26, 27, 28, and 29 are FcγRIa, FcγRIIa (R), FcγRIIa (H), and FcγRIIIa, respectively.
(§2) Analysis of interaction between objective antibody and the FcγR was carried out using Biacore T100 (GE Healthcare). HBS-EP+ (GE Healthcare) was used as the running buffer, and the measurement temperature was set to 25° C. Chips produced by immobilizing the antigen peptide by the amine coupling method to a Series S Sencor Chip CM5 (GE Healthcare), or alternatively, chips produced by allowing preliminarily biotinylated antigen peptides to interact with and immobilize onto a Series S Sensor Chip SA (certified) (GE Healthcare) were used. Antibodies of interest were captured onto an antigen peptide-immobilized chip, and allowed to interact to each FcγR diluted with running buffer. To regenerate and repeatedly use the chip, the antibodies captured on the chip were washed off by reacting 10 mM glycine-HCl, pH 1.5.
On the technique in general: SPR reads the build-up and loss of mass on a sensor chip optically.

Experiment [2] deals with T2, FcγRIIa R (extracellular domain, C-terminal His tag) (human, UniProt P12318 34-217).
T2 construct: extracellular domain; also called FcgRIIa R type; 2aR; not shown: His tag attached to the C terminus
T2 sequence (looked up): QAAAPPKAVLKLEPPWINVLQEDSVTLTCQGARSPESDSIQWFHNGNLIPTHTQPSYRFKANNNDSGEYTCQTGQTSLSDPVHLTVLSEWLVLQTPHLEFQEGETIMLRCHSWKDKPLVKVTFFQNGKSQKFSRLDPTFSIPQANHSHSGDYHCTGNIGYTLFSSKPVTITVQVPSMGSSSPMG
Described as above. How it is done: as §1, §2

Experiment [3] deals with T3, FcγRIIb extracellular domain with C-terminal His tag (human, UniProt P31994 43-217).
T3 construct: extracellular domain; Expressed in FreeStyle293 cells; used as analyte in Biacore; also called FcgRIIb; 2b; not shown: C-terminal His tag
T3 sequence (looked up): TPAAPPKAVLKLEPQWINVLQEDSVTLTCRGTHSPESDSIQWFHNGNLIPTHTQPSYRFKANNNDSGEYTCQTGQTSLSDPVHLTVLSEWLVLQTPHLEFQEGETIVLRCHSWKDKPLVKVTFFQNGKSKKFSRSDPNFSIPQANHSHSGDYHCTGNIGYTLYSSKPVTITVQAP
Description: SPR (Biacore), antibody captured on antigen-peptide chip, FcgRIIb as analyte; binding relative to GpH7-A5/GpH7-B3/GpL16-k0 (HeCon Ab) = 100.

B1: GpH7-A5/GpH7-B3 variant E333_09D/GpL16-k0 (antibody, human IgG1, kappa)
heavy 1: not shown
heavy 2: not shown
light: DIVMTQSPLSLPVTPGEPASISCQASESLVHSNRNTYLHWYLQKPGQSPQLLIYKVSNRFSGVPDRFSGSGSGTDFTLKISRVEAEDVGVYYCSQNTHVPPTFGQGTKVEIERTVAAPSVFIFPPSDEQLKSGTASVVCLLNNFYPREAKVQWKVDNALQSGNSQESVTEQDSKDSTYSLSSTLTLSKADYEKHKVYACEVTHQGLSSPVTKSFNRGEC
notes: Heterodimerized anti-glypican-3 IgG1; alteration in only one H chain (GpH7-B3 side); also called He Ab
B1: the He/Con_2b in experiment [1] is 94.3 % of control (GpH7-A5/GpH7-B3/GpL16-k0 = 100). In addition, in experiment [2], the He/Con_2aR was 103 % of control (GpH7-A5/GpH7-B3/GpL16-k0 = 100).

B2: GpH7-A5/GpH7-B3 variant E333_07I/GpL16-k0 (antibody, human IgG1, kappa)
heavy 1: not shown
heavy 2: not shown
light: DIVMTQSPLSLPVTPGEPASISCQASESLVHSNRNTYLHWYLQKPGQSPQLLIYKVSNRFSGVPDRFSGSGSGTDFTLKISRVEAEDVGVYYCSQNTHVPPTFGQGTKVEIERTVAAPSVFIFPPSDEQLKSGTASVVCLLNNFYPREAKVQWKVDNALQSGNSQESVTEQDSKDSTYSLSSTLTLSKADYEKHKVYACEVTHQGLSSPVTKSFNRGEC
notes: as for B1
In the case of B2, the He/Con_2b in experiment [1] is 96.2 % of control (GpH7-A5/GpH7-B3/GpL16-k0 = 100). Moreover, the He/Con_2aR in experiment [2] is 104 % of control (GpH7-A5/GpH7-B3/GpL16-k0 = 100).

B3: GpH7-A5/GpH7-B3 variant T335_09D/GpL16-k0 (He Ab) (antibody, human IgG1, kappa)
heavy 1: not shown
heavy 2: not shown
light: DIVMTQSPLSLPVTPGEPASISCQASESLVHSNRNTYLHWYLQKPGQSPQLLIYKVSNRFSGVPDRFSGSGSGTDFTLKISRVEAEDVGVYYCSQNTHVPPTFGQGTKVEIERTVAAPSVFIFPPSDEQLKSGTASVVCLLNNFYPREAKVQWKVDNALQSGNSQESVTEQDSKDSTYSLSSTLTLSKADYEKHKVYACEVTHQGLSSPVTKSFNRGEC
notes: Substitution in one H chain only; position in EU numbering; also called T335D heterodimerized antibody
Turning to B3, in experiment [3], the He/Con_2b was 108 % of control.

B4: GpH7-A5/GpH7-B3 variant S337_04F/GpL16-k0 (antibody, human IgG1, kappa)
heavy 1: not shown
heavy 2: not shown
light: DIVMTQSPLSLPVTPGEPASISCQASESLVHSNRNTYLHWYLQKPGQSPQLLIYKVSNRFSGVPDRFSGSGSGTDFTLKISRVEAEDVGVYYCSQNTHVPPTFGQGTKVEIERTVAAPSVFIFPPSDEQLKSGTASVVCLLNNFYPREAKVQWKVDNALQSGNSQESVTEQDSKDSTYSLSSTLTLSKADYEKHKVYACEVTHQGLSSPVTKSFNRGEC
notes: as for B1
Regarding B4, in experiment [1], the He/Con_2b is 97.8 % of control (GpH7-A5/GpH7-B3/GpL16-k0 = 100). Also, the He/Con_2aR in experiment [2] was 105 % of control (GpH7-A5/GpH7-B3/GpL16-k0 = 100).

B5: GpH7-A5/GpH7-B3 variant Y300_19Q/GpL16-k0 (He Ab) (antibody, human IgG1, kappa)
heavy 1: not shown
heavy 2: not shown
light: DIVMTQSPLSLPVTPGEPASISCQASESLVHSNRNTYLHWYLQKPGQSPQLLIYKVSNRFSGVPDRFSGSGSGTDFTLKISRVEAEDVGVYYCSQNTHVPPTFGQGTKVEIERTVAAPSVFIFPPSDEQLKSGTASVVCLLNNFYPREAKVQWKVDNALQSGNSQESVTEQDSKDSTYSLSSTLTLSKADYEKHKVYACEVTHQGLSSPVTKSFNRGEC
notes: Substitution in one H chain only; position in EU numbering; also called Y300Q heterodimerized antibody
As for B5, the He/Con_2b in experiment [3] is 108 % of control.

B6: GpH7-A5/GpH7-B3 variant E333_15Y/GpL16-k0 (antibody, human IgG1, kappa)
heavy 1: not shown
heavy 2: not shown
light: DIVMTQSPLSLPVTPGEPASISCQASESLVHSNRNTYLHWYLQKPGQSPQLLIYKVSNRFSGVPDRFSGSGSGTDFTLKISRVEAEDVGVYYCSQNTHVPPTFGQGTKVEIERTVAAPSVFIFPPSDEQLKSGTASVVCLLNNFYPREAKVQWKVDNALQSGNSQESVTEQDSKDSTYSLSSTLTLSKADYEKHKVYACEVTHQGLSSPVTKSFNRGEC
notes: as for B1
Regarding B6, the He/Con_2b in experiment [1] was 94.4 % of control (GpH7-A5/GpH7-B3/GpL16-k0 = 100). Moreover, in experiment [2], the He/Con_2aR was 101 % of control (GpH7-A5/GpH7-B3/GpL16-k0 = 100).

B7: GpH7-A5/GpH7-B3 variant I336_18N/GpL16-k0 (antibody, human IgG1, kappa)
heavy 1: not shown
heavy 2: not shown
light: DIVMTQSPLSLPVTPGEPASISCQASESLVHSNRNTYLHWYLQKPGQSPQLLIYKVSNRFSGVPDRFSGSGSGTDFTLKISRVEAEDVGVYYCSQNTHVPPTFGQGTKVEIERTVAAPSVFIFPPSDEQLKSGTASVVCLLNNFYPREAKVQWKVDNALQSGNSQESVTEQDSKDSTYSLSSTLTLSKADYEKHKVYACEVTHQGLSSPVTKSFNRGEC
notes: as for B1
On to B7, for which the He/Con_2b in experiment [1] was 97.6 % of control (GpH7-A5/GpH7-B3/GpL16-k0 = 100). Further, the He/Con_2aR in experiment [2] was 104 % of control (GpH7-A5/GpH7-B3/GpL16-k0 = 100).

B8: GpH7-A5/GpH7-B3 variant E333_08L/GpL16-k0 (antibody, human IgG1, kappa)
heavy 1: not shown
heavy 2: not shown
light: DIVMTQSPLSLPVTPGEPASISCQASESLVHSNRNTYLHWYLQKPGQSPQLLIYKVSNRFSGVPDRFSGSGSGTDFTLKISRVEAEDVGVYYCSQNTHVPPTFGQGTKVEIERTVAAPSVFIFPPSDEQLKSGTASVVCLLNNFYPREAKVQWKVDNALQSGNSQESVTEQDSKDSTYSLSSTLTLSKADYEKHKVYACEVTHQGLSSPVTKSFNRGEC
notes: as for B1
Consider B8, for which the He/Con_2b in experiment [1] was 95 % of control (GpH7-A5/GpH7-B3/GpL16-k0 = 100). Moreover, the He/Con_2aR in experiment [2] is 103 % of control (GpH7-A5/GpH7-B3/GpL16-k0 = 100).
